Experimental data reported in PMC3875647 (Worm, 2013).

Molecular target: the molecule itself
Assay: SEC-MALS

Row | Protein | stoichiometry N
1 | MBP-AA-SAS5-NTD (SAS-5 residues 1–260 fused to MBP with a two-alanine linker) (domain or fragment, C. elegans, UniProt Q20010 1-260, looked up) MNNYDDLPCSIYFKKPTVQEFVDQPRVFEDSEVPAFQEVLQLPQERTKPPVPSTQPIVAAVEVAKKKSCLSAPKPRKEPPSHPALRQKTVAFGKTVNVSQTVEGTSRNSKKVLASTMSAQNTTTTEEQAAENWRDAMKTELQTIRTEIQEETARRQEELNAQNLVKMQELMSNFFQKITIPKQQAIEPVEKDKENFHESPRQSRQQKPASKIASAREVIKRDGVIPPEALTIIEQRLRSDPMFRQQIDNVLADAECDANR | 4
2 | MBP-AA-SAS-5 aa82-260 (domain or fragment, C. elegans, UniProt Q20010 82-260, looked up) HPALRQKTVAFGKTVNVSQTVEGTSRNSKKVLASTMSAQNTTTTEEQAAENWRDAMKTELQTIRTEIQEETARRQEELNAQNLVKMQELMSNFFQKITIPKQQAIEPVEKDKENFHESPRQSRQQKPASKIASAREVIKRDGVIPPEALTIIEQRLRSDPMFRQQIDNVLADAECDANR | 4
